Test results reported in US20250368754A1 (KANAPH THERAPEUTICS, published 2025).

B1: T3.06 (anti-hu FAP/hu scLIGHT3(195-198), hu IgG1 DANG) (bispecific antibody)
heavy: QVQLVQSGAEVKKPGASVKVSCKTSRYTFTEYTIHWVRQAPGQRLEWIGGINPNNGIPNYNQKFKGRVTITVDTSASTAYMELSSLRSEDTAVYYCARRRIAYGYDEGHAMDYWGQGTLVTVSSASTKGPSVFPLAPSSKSTSGGTAALGCLVKDYFPEPVTVSWNSGALTSGVHTFPAVLQSSGLYSLSSVVTVPSSSLGTQTYICNVNHKPSNTKVDKKVEPKSCDKTHTCPPCPAPELLGGPSVFLFPPKPKDTLMISRTPEVTCVVVAVSHEDPEVKFNWYVDGVEVHNAKTKPREEQYGSTYRVVSVLTVLHQDWLNGKEYKCKVSNKALPAPIEKTISKAKGQPREPQVYTLPPSRDELTKNQVSLWCLVKGFYPSDIAVEWESNGQPENNYKTTPPVLDSDGSFFLYSKLTVDKSRWQQGNVFSCSVMHEALHNHYTQKSLSLSPGK
light: not shown
chain: not shown
notes: Knob-into-hole
B2: T3.05 (anti-hu FAP/hu scLIGHT3(226-231), hu IgG1 DANG) (bispecific antibody)
heavy: B1 heavy
light: not shown
chain: not shown
notes: Knob-into-hole
B3: T3.15 (anti-hu FAP/hu scLIGHT-LIGHT(L118K, G119E)2, hu IgG1 DANG) (bispecific antibody)
heavy: B1 heavy
light: not shown
chain: not shown
B4: T3.16 (anti-hu FAP/hu scLIGHT(226-231)-LTb2, hu IgG1 DANG) (bispecific antibody)
heavy: B1 heavy
light: not shown
chain: not shown
notes: Knob-into-hole
B5: T3.17 (anti-hu FAP/hu scLIGHT(195-198)-LTb2, hu IgG1 DANG) (bispecific antibody)
heavy: B1 heavy
light: not shown
chain: not shown
notes: Knob-into-hole

Columns and labels:
[1] = target: T1, human FAP on HEK293-hFAP cells (human, UniProt Q12884 1-760); assay: flow cytometry on HEK293-hFAP cells, 1 µg protein, anti-human IgG detection
T1 construct: whole, on cells; also called human FAP-expressing cell line
T1 sequence (looked up): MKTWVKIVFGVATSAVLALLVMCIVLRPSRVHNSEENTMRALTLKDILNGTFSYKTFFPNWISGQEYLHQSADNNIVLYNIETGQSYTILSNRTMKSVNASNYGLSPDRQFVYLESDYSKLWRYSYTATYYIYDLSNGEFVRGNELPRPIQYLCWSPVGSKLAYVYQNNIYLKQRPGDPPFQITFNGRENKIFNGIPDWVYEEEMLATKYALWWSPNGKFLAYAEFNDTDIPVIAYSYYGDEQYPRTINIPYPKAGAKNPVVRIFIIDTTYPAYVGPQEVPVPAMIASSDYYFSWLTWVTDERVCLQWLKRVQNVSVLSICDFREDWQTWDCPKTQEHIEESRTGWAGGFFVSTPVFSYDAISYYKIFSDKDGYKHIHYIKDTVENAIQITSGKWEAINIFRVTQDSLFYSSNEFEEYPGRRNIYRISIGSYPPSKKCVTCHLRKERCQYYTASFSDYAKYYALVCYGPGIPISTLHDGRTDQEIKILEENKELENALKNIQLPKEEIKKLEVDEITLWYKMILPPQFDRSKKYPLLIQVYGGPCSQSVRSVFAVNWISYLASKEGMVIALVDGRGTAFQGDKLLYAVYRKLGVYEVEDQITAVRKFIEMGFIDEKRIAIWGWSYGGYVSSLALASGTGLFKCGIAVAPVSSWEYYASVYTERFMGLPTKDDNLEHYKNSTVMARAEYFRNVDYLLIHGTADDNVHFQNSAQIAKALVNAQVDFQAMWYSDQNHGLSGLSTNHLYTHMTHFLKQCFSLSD
Description: (§1) Specifically, the cell line was prepared by suspending in a FACS buffer solution at 1×10⁵ cells/100 μL, and treated with 1 μg each of T3.10, T3.01, T3.05, T3.06, T3.14, and T3.18. The cells were washed twice with a FACS buffer solution. The cells were stained with an anti-human IgG antibody (Biolegend). The negative control sample was stained only with an anti-human IgG antibody (Biolegend). The expression ratio of the stained cells was measured using BD LSR and analyzed using FlowJo software.

[2] = target: T1, human FAP on HEK293-hFAP cells; assay: flow cytometry on HEK293-hFAP cells, 1 ug protein per 1x10^5 cells, anti-human IgG detection (axis TMEkine-PE)
Description: as §1

[3] = target: T2, recombinant human herpes virus entry mediator (HVEM) (human, UniProt Q92956 39-202); assay: sandwich ELISA: plate coated with recombinant human HVEM 1 ug/mL, fusion protein from 1 nM in serial dilution, detected with biotinylated recombinant human FAP and streptavidin conjugate, OD 450 nm
T2 construct: neither construct is described; also called human HVEM; recombinant human HVEM protein (R&D systems)
T2 sequence (looked up): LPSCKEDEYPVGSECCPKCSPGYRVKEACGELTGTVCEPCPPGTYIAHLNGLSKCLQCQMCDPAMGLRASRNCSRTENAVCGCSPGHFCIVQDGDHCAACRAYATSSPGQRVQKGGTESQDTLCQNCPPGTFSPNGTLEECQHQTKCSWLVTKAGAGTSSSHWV
Description: Considering that LIGHT of the fusion protein must bind to the herpes virus entry mediator (HVEM) for the action, it was confirmed that T3.01 binds to the recombinant human HVEM, as follows: [0370] (i) The recombinant human HVEM protein (R&D systems) was suspended at 1 μg/mL, dispensed in a 96-well immune plate, and treated for 24 hours. [0371] (ii) The wells were washed with a wash solution, and then blocking was performed for 1 hour with 1% BSA (bovine serum albumin, Sigma) solution. [0372] (iii) The wells were washed with a wash solution, and then T3.01, T3.14, T3.16, T3.17, T3.18 and T3.10, or T3.05, T3.06, T3.04, T3.14 and T3.10 were suspended at 1 nM and diluted by serial dilution. The wells were treated with the diluted T3.01, T3.14, T3.16, T3.17, T3.18 and T3.10, or T3.05, T3.06, T3.04, T3.14 and T3.10 for 2 hours. [0373] (iv) The wells were washed with a wash solution, and then treated with the human recombinant FAP-biotin diluted at 0.5 μg/mL for 2 hours. [0374] (v) The wells were washed with a wash solution, and then treated with streptavidin-RP for 20 minutes. [0375] (vi) The wells were washed with a wash solution, and then treated with a substrate solution for 20 minutes. [0376] (vii) The wells were treated with a stop solution, and the absorbance was measured at 450 nm.

human LTβR on A375 cells = human LTβR on A375 cells (human, UniProt P36941 31-435); assay: cell-based or functional assay
Chain of human LTβR on A375 cells (P36941 31-435): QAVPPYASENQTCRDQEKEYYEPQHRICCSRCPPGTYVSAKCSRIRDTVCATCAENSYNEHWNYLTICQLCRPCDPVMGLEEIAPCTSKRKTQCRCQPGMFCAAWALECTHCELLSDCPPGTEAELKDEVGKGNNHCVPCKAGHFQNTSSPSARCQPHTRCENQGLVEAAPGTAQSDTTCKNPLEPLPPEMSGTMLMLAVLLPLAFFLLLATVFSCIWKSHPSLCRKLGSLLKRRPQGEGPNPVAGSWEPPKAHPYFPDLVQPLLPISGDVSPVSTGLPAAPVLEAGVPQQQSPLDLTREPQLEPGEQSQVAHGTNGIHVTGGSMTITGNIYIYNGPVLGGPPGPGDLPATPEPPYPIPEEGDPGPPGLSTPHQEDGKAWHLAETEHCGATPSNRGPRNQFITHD

Binder	percent of cells bound [1] [%]	percent of cells in the positive gate [2] [%]	binding result [3]	IL-8 secretion of A375 cells, EC50 (FIG. 15a) (human LTβR on A375 cells) [nM]
B1	≥ 99	100	–	–
B2	≥ 99	99.8	no binding (tested: 1000 pM)	–
B3	–	–	–	3.79
B4	–	–	no binding (tested: 1000 pM)	–
B5	–	–	no binding (tested: 1000 pM)	–
